Measurements as given in US20150246959A1 (US Dept. of Health and Human Services, published 2015).

Molecular target: MAGE-A3 full-length protein processed and presented by HLA-DP4 on cells (human)
Experiment: cell-based or functional assay

Chain of MAGE-A3 full-length protein processed and presented by HLA-DP4 on cells (human) (P20036 29-260, chain 1 of 2): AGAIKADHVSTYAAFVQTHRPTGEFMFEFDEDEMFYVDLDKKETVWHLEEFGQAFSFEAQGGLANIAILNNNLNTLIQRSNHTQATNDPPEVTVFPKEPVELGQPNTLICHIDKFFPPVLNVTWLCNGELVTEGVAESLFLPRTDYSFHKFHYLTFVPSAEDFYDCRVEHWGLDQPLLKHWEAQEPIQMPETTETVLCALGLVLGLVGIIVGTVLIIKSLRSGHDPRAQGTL
Chain of MAGE-A3 full-length protein processed and presented by HLA-DP4 on cells (human) (P43357 whole entry, chain 2 of 2, further chain): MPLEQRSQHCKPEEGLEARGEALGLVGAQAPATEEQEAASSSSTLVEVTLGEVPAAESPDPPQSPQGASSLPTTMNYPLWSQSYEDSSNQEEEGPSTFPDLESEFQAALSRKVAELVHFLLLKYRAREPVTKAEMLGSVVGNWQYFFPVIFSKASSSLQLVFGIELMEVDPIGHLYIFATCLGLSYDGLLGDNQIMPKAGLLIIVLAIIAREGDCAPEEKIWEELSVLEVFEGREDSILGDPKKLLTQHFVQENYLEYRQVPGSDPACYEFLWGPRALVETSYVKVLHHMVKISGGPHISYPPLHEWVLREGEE

fold increase in anti-tumor activity (IFN-gamma) against wt 6F9 TCR, CD4+ enriched PBL [fold] | Binder
~2 | a1 substituted 6F9 TCR (alpha chain S116A) (TCR, V domains shown) V domain 1: QTVTQSQPEMSVQEAETVTLSCTYDTSESDYYLFWYKQPPSRQMILVIRQEAYKQQNATENRFSVNFQKAAKSFSLKISDSQLGDAAMYFCALRASGTYKYIFGTGTRLKVLA V domain 2: GAGVSQSPSNKVTEKGKDVELRCDPISGHTALYWYRQSLGQGLEFLIYFQGNSAPDKSGLPSDRFSAERTGGSVSTLTIQRTQQEDSAVYLCASIRTGPFFSGNTIYFGEGSWLTVVE
~2 | a2 substituted 6F9 TCR (alpha chain S117A) (TCR, V domains shown) V domain 1: QTVTQSQPEMSVQEAETVTLSCTYDTSESDYYLFWYKQPPSRQMILVIRQEAYKQQNATENRFSVNFQKAAKSFSLKISDSQLGDAAMYFCALRSAGTYKYIFGTGTRLKVLA V domain 2: GAGVSQSPSNKVTEKGKDVELRCDPISGHTALYWYRQSLGQGLEFLIYFQGNSAPDKSGLPSDRFSAERTGGSVSTLTIQRTQQEDSAVYLCASIRTGPFFSGNTIYFGEGSWLTVVE
